Results published in the supplement of paper PMC10567573.
± gives the standard deviation.

Experiment: protein stability index of a GFP-peptide fusion (GPS, HEK-293T) (PSI 1-6); higher = more stable
[1] = treatment: DMSO, c terminus: a fixed tail appended
[2] = treatment: MLN4924 1 uM, 8 h, c terminus: a fixed tail appended
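Note: 24-mer peptide tiles fused after GFP, lentivirally expressed, FACS-sorted into six equal bins by GFP/DsRed ratio, decoded by Illumina sequencing, PSI is the read-weighted mean bin number.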

ESIAHIGDVMFTGTADGRVVKLEN [APMAP]
protein stability index [1]: 4.11 ± 0.17
protein stability index [2]: 4.38 ± 0.19

REETPRMPSWASARDRQPSDFKTD [ELOA2]
protein stability index [1]: 4.96 ± 0.18
protein stability index [2]: 5.03 ± 0.38

ELERLIDKAMKKDGLVGMAIVGGM [FIS1]
protein stability index [1]: 2 ± 0.29
protein stability index [2]: 2.46 ± 0.37

GVKISEQQAEKILKSMDKNGTMTI [SLC25A25]
protein stability index [1]: 3.73 ± 0.13
protein stability index [2]: 3.7 ± 0.22

KLPSRRQPGLLHLQSCGDLHTFTP [FAM189A2]
protein stability index [1]: 4.92 ± 0.19
protein stability index [2]: 4.94 ± 0.15

WHTIAPMGTRRKHLGCAVYQDMIY [KLHL20]
protein stability index [2]: 1.93 ± 0.96

SNGVEMAAKFPSGSQRARVVNTDH [SDE2]
protein stability index [1]: 4.59 ± 0.2
protein stability index [2]: 4.58 ± 0.26

NVLHVARLPNRQLISCSEDGSVRI [WDR41]
protein stability index [1]: 2.99 ± 0.17
protein stability index [2]: 3.12 ± 0.32

DDSGGPTPSSYAPSHPPRPLLPLD [ZBTB22]
protein stability index [1]: 4.54 ± 0.25
protein stability index [2]: 4.79 ± 0.22

PEYREWNPELIKPKKLLNPVKASR [FAM107A]
protein stability index [1]: 3.89 ± 0.13
protein stability index [2]: 4.09 ± 0.39

SGPPASYCAKLCEPQWFYEETESS [C8orf76]
protein stability index [1]: 4.02 ± 0.12
protein stability index [2]: 4.37 ± 0.19

YKCSDCGKTFKQSSNLGQHQRIHT [ZNF232]
protein stability index [1]: 4.22 ± 0.18
protein stability index [2]: 4.3 ± 0.45

RVRRFQVVEVTKGILEHVDSASPV [M1AP]
protein stability index [1]: 3.36 ± 0.2
protein stability index [2]: 3.37 ± 0.17

PHQREKIDKEIELHRILHHKHVVQ [PLK2]
protein stability index [1]: 3.48 ± 0.19
protein stability index [2]: 3.73 ± 0.34

GLSQGLVDREKGLSAEPGWQAKRE [CHGA]
protein stability index [1]: 4.92 ± 0.29
protein stability index [2]: 4.84 ± 0.4

AAQNGDESSTRLLLEKNASVNEVD [RIPK4]
protein stability index [1]: 5.37 ± 0.24
protein stability index [2]: 5.48 ± 0.27

HVYIGSAGLDWQSLGQMKELGVIF [PLD5]
protein stability index [1]: 2.49 ± 0.71
protein stability index [2]: 2.58 ± 1.1

MAAGFPYALRAYLGYQAVPSGSSG [CEBPB]
protein stability index [1]: 2.1 ± 0.3
protein stability index [2]: 2.04 ± 0.18

AGGDVPHKTHQAPASASSLPGTGA [DYRK1B]
protein stability index [1]: 4.89 ± 0.099
protein stability index [2]: 4.87 ± 0.28

ETLLKVDLENRCQSLTEDLEFRKS [LMNB1]
protein stability index [1]: 4.42 ± 0.22
protein stability index [2]: 4.43 ± 0.2

EVRSKAEEVVSFVKKNVLVTGGFF [FUNDC2]
protein stability index [1]: 2.17 ± 0.37
protein stability index [2]: 2.25 ± 0.34

QNVRNHIHSCFSDVTCFLLPHPGL [ATL3]
protein stability index [1]: 2.49 ± 0.65
protein stability index [2]: 2.29 ± 0.55

FEKSRYETYIHLLAMKIKVGSDDL [PSD2]
protein stability index [1]: 2.53 ± 1
protein stability index [2]: 2.55 ± 0.61

LESSYNDEMLSYLPGGTTGLQLPS [TFE3]
protein stability index [1]: 3.94 ± 0.18
protein stability index [2]: 3.88 ± 0.27

SDLFRLQEYNIPGVIQSVIGWKTV [CDS2]
protein stability index [1]: 2.28 ± 0.26
protein stability index [2]: 2.1 ± 0.28

VAASPAPAGERRIYRHRIPSTICF [ZNF511]
protein stability index [1]: 2.51 ± 0.18
protein stability index [2]: 2.48 ± 0.21

DFIDCVREKGGKVLVHCEAGISRS [DUSP5]
protein stability index [1]: 2.77 ± 0.2
protein stability index [2]: 2.79 ± 0.41

ESLSAIEAELEKVAHQLQALRRG [CHGA]
protein stability index (treatment: DMSO, c terminus: native): 3.19 ± 0.42
protein stability index (treatment: MLN4924 1 uM, 8 h, c terminus: native): 3 ± 0.72

RQSYDISIVAQVDQTGSKSSNLLD [CARM1]
protein stability index [1]: 3.93 ± 0.092
protein stability index [2]: 4.07 ± 0.17

VRDQISHCTVKLRQTTGLMEYCLE [TRIM9]
protein stability index [1]: 2.59 ± 0.31
protein stability index [2]: 2.65 ± 0.36

GSILQFNPEVGIFVSIAQSEQESL [SMG5]
protein stability index [1]: 3.07 ± 0.38
protein stability index [2]: 2.92 ± 0.18

IFNNVMTLCAMLPLLLFTYLNSFL [SLC29A1]
protein stability index [1]: 3.25 ± 0.25
protein stability index [2]: 3.23 ± 0.2

LGCFSDTEPWGGTAIRPLKILPWS [PNLIPRP1]
protein stability index [1]: 2.1 ± 0.28
protein stability index [2]: 2.43 ± 0.57

WQQQSYLDSGIHSGATTTAPSLSG [CTNNB1]
protein stability index [1]: 3.71 ± 0.1
protein stability index [2]: 3.78 ± 0.33

AVPKFMKRIKVPDYKDRSVFGVPL [DLC1]
protein stability index [1]: 2.33 ± 0.15
protein stability index [2]: 2.4 ± 0.25

YDQQIWEKSIEQTQIKGLKNKPKK [PHTF1]
protein stability index [1]: 4.9 ± 0.093
protein stability index [2]: 5.17 ± 0.083

EGLNSSLCSPGHERRGTPADTEEP [PSD2]
protein stability index [1]: 5.39 ± 0.37
protein stability index [2]: 5.53 ± 0.19

AECFRIFDRNADGYIDPEELAEIF [TNNC2]
protein stability index [1]: 5.32 ± 0.21
protein stability index [2]: 5.09 ± 0.15

HTEERPFKCNYCGKSFRQRPSLVI [ZNF449]
protein stability index [1]: 2.37 ± 0.15
protein stability index [2]: 2.44 ± 0.28

TIDAVPNAIPGRTDIELEIYGMEG [ZNF207]
protein stability index [1]: 3.86 ± 0.27
protein stability index [2]: 4 ± 0.093

ESFLAWKKRKRQEKIDKLEQDMER [ZC3H15]
protein stability index [1]: 3.8 ± 0.2
protein stability index [2]: 4.22 ± 0.33

IAAGEVIQRPANAIKEMIENCLDA [MLH1]
protein stability index [1]: 4.26 ± 0.18
protein stability index [2]: 4.3 ± 0.34

HRLLNMARNNNDPGRLTEALCLEV [RNF180]
protein stability index [1]: 3.89 ± 0.33
protein stability index [2]: 3.96 ± 0.28

DVAEGYRKLSLKGHNDWVMDVAIS [WDR88]
protein stability index [1]: 2.47 ± 0.31
protein stability index [2]: 2.69 ± 0.5

LDDRKNEEDGGADEHEHPLTSELD [MIA2]
protein stability index [1]: 5.76 ± 0.12
protein stability index [2]: 5.26 ± 0.38

VPIDIFSEEIRFYQLGEEAMEKFR [KCNA3]
protein stability index [1]: 3.14 ± 0.28
protein stability index [2]: 3.23 ± 0.18

VELPCRISPGKNATGMEVGWYRPP [MOG]
protein stability index [1]: 2.33 ± 0.091
protein stability index [2]: 2.32 ± 0.28

PHVCSLCGKAFYKKYRLTEHERAH [ZNF649]
protein stability index [1]: 4.54 ± 0.24
protein stability index [2]: 4.66 ± 0.55

ERLAEAEKSQLIMQAEAEAASVRM [FLOT1]
protein stability index [1]: 4.84 ± 0.39
protein stability index [2]: 4.66 ± 0.3

KSVAWEGGACPAFLPSLRPPPLTS [NCF4]
protein stability index [1]: 3.12 ± 0.36
protein stability index [2]: 3.11 ± 0.078

GLGAGFGGGFAGGDGLLVGSEKVT [KRT16]
protein stability index [1]: 3.98 ± 0.11
protein stability index [2]: 4.081 ± 0.035

PLRPLLGFRESDSAKPASLRLLQH [C6orf223]
protein stability index [1]: 3.41 ± 0.39
protein stability index [2]: 3.6 ± 0.27

RVQAALVWERPARSALWCLGLNAA [RETREG3]
protein stability index [1]: 2.1 ± 0.71
protein stability index [2]: 2.38 ± 0.14

VQADQERERQRRLEVEREAEKKRE [LRRC59]
protein stability index [1]: 5.52 ± 0.093
protein stability index [2]: 5.64 ± 0.17

RRQLEACQRERAFSVKFEVQAPRW [OAS1]
protein stability index [1]: 2.75 ± 0.23
protein stability index [2]: 2.93 ± 0.18

DAEVSCTDNGTFNLSRGQTPLTEG [RETREG3]
protein stability index [1]: 5.2 ± 0.25
protein stability index [2]: 5.32 ± 0.1

SAQRSKDPNSQVGACIVNSENKIV [DCTD]
protein stability index [1]: 4.91 ± 0.17
protein stability index [2]: 4.98 ± 0.12

ECGHNFCKACITRWWEDLERDFPC [TRIM39]
protein stability index [1]: 2.97 ± 0.49
protein stability index [2]: 3.01 ± 0.7

NLQDTLEAASFLQILPVLDFCKVF [KLHL13]
protein stability index [1]: 2.73 ± 0.35
protein stability index [2]: 2.63 ± 0.52

RSVRVRLLLSFWKETDPLTFNFIS [PLD5]
protein stability index [1]: 2.89 ± 0.71
protein stability index [2]: 2.54 ± 0.18

QEELPALLKALVSELSEHLRDPLT [FCHSD1]
protein stability index [1]: 2.13 ± 0.31
protein stability index [2]: 2.25 ± 0.071

SESSGQTHLEGDTVQIICNTGYRL [CFHR2]
protein stability index [1]: 3.34 ± 0.21
protein stability index [2]: 3.48 ± 0.38

ETVDLVLKLKNKLLQADREHLPVK [DENND6A]
protein stability index [1]: 2.86 ± 0.41
protein stability index [2]: 2.72 ± 0.38

ELSSLGSDSEANGFAERRIDKFGF [TBC1D10A]
protein stability index [1]: 3.82 ± 0.2
protein stability index [2]: 3.83 ± 0.15

NSDRMTHCGVLEFVADEGICYLPH [UFD1]
protein stability index [1]: 2.87 ± 0.17
protein stability index [2]: 2.68 ± 0.36

YGKDIVKACSLLDVAVHMPCLGHT [ZBED1]
protein stability index [1]: 2.14 ± 0.3
protein stability index [2]: 2.29 ± 0.33

CGRRGIKVWSLTGQVAEDRFPESH [TLE6]
protein stability index [1]: 2.79 ± 0.27
protein stability index [2]: 3.11 ± 0.16

YSKTFQRSNVDFLETPELTSTMLV [NECAB1]
protein stability index [1]: 2.18 ± 0.37
protein stability index [2]: 2.39 ± 0.35

LESELLRGTQYSSLDSLDGLSLTD [PSD2]
protein stability index [1]: 4.53 ± 0.22
protein stability index [2]: 4.73 ± 0.21

WIFVNLTVRFCILGKESFYDTFHT [HACD3]
protein stability index [1]: 3.29 ± 0.26
protein stability index [2]: 3.05 ± 0.12

PSNFLEIDVSNPQTVGVGRGRFTT [SNX3]
protein stability index [1]: 3.84 ± 0.29
protein stability index [2]: 3.8 ± 0.59

TPKSGEPRVPEEAAQDRPMSPGDC [YJU2B]
protein stability index [1]: 5.49 ± 0.24
protein stability index [2]: 5.42 ± 0.25

PIHTIILNPHVHLVGDDAACIAYI [CAMK2D]
protein stability index [1]: 2 ± 0.45
protein stability index [2]: 3.12 ± 1.6

NTQTEELNQQVVSSSEQLQCCQTE [KRT36]
protein stability index [1]: 5.49 ± 0.28
protein stability index [2]: 5.51 ± 0.081

LVFLELAQFHCAYQLADWCLHHIC [RHOBTB2]
protein stability index [1]: 3.16 ± 0.17
protein stability index [2]: 2.98 ± 0.43

ISYLVLSMISMGLFSIAPLIYGSM [JAGN1]
protein stability index [1]: 2.91 ± 0.46
protein stability index [2]: 3.19 ± 0.17

EDNLEDDDVEMKNGITQGDKLRAL [CDC14A]
protein stability index [1]: 5.44 ± 0.26
protein stability index [2]: 5.38 ± 0.12

MPNVMTGTMGMAPLGNTPMMNQSM [CLINT1]
protein stability index [1]: 3.68 ± 0.23
protein stability index [2]: 3.48 ± 0.27

QGEICLCTSRIFVQKSIYSEFLKR [ALDH8A1]
protein stability index [1]: 2.29 ± 0.64
protein stability index [2]: 2.06 ± 0.49

RERNMAPDLRQDFNMMEQKKRVSM [ADD1]
protein stability index [1]: 4.53 ± 0.11
protein stability index [2]: 4.5 ± 0.092

KHLNASNPTEPATIIFTAAREGRE [TOR1AIP2]
protein stability index [1]: 4.13 ± 0.2
protein stability index [2]: 4.22 ± 0.27

LGANEVLLVVGGFGSQQSPIDVVE [KLHL12]
protein stability index [1]: 2.27 ± 0.28
protein stability index [2]: 2.25 ± 0.85

SGDPPLSSNVSLSLFVLDQNDNAP [PCDHGA10]
protein stability index [1]: 3.63 ± 0.09
protein stability index [2]: 3.59 ± 0.27

LTRQLVSCSSDGGIAVWNMDVSRE [WDFY1]
protein stability index [1]: 2.96 ± 0.32
protein stability index [2]: 3.08 ± 0.2

VLQDRAAKGSLGTQIGFADLMGVL [FEM1A]
protein stability index [1]: 2.15 ± 0.31
protein stability index [2]: 2.22 ± 0.35

MFGFFFGRTPLIKLSPKKTWEGFI [CDS2]
protein stability index [1]: 2.38 ± 0.48
protein stability index [2]: 2.35 ± 0.49

CYSEEITVCGDLHGQLDDLIFIFY [PPEF2]
protein stability index [1]: 2.96 ± 0.43
protein stability index [2]: 2.65 ± 0.46

NPEEDEDQRNPAKESLETPSNGRI [SOAT1]
protein stability index [1]: 5.76 ± 0.064
protein stability index [2]: 5.62 ± 0.077

VNPAYPESRYTSDYFISYGIEHAQ [ETS1]
protein stability index [1]: 2.8 ± 0.51
protein stability index [2]: 2.8 ± 0.4
